Like-named read-outs stand apart in the source and are kept apart here.
T1: mouse IL-18 receptor alpha (mouse, UniProt Q61098 20-326, limits assumed)
T1 construct: also called Mouse IL18Ra; mouse IL-18R alpha
T1 sequence (looked up): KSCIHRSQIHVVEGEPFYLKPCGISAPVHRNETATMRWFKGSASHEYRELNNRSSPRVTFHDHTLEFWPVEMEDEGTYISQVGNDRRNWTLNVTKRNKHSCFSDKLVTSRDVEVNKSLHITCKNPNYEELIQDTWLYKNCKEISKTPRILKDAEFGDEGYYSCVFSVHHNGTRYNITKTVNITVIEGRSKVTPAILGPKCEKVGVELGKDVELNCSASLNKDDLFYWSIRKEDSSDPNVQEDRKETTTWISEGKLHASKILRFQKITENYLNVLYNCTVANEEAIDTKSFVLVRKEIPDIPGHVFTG

T2: mouse IL-18 binding protein (mouse, UniProt Q9Z0M9 29-193)
T2 construct: also called Mouse IL18BP; Mouse IL-18BP
T2 sequence (looked up): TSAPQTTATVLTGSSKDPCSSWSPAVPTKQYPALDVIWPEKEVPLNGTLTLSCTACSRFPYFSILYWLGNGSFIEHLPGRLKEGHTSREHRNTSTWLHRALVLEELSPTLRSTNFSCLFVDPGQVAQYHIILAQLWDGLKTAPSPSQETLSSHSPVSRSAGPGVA

T3: IL-18 receptors on HEK-Blue IL-18 reporter cells (UniProt Q13478 19-541; O95256 20-599, limits assumed)
T3 sequence (looked up) 1: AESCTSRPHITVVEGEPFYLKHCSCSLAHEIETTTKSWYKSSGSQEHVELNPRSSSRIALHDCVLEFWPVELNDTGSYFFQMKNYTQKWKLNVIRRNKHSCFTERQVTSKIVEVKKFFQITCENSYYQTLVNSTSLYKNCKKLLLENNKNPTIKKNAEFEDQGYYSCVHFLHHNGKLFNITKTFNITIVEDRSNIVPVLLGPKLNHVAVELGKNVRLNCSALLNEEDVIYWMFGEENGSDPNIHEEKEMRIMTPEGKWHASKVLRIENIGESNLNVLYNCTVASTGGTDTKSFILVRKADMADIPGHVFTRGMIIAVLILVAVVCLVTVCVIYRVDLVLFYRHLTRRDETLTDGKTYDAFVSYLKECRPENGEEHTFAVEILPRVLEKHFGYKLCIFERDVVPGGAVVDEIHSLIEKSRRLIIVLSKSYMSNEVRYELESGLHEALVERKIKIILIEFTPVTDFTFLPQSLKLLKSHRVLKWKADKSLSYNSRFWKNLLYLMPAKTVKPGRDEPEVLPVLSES
T3 sequence (looked up) 2: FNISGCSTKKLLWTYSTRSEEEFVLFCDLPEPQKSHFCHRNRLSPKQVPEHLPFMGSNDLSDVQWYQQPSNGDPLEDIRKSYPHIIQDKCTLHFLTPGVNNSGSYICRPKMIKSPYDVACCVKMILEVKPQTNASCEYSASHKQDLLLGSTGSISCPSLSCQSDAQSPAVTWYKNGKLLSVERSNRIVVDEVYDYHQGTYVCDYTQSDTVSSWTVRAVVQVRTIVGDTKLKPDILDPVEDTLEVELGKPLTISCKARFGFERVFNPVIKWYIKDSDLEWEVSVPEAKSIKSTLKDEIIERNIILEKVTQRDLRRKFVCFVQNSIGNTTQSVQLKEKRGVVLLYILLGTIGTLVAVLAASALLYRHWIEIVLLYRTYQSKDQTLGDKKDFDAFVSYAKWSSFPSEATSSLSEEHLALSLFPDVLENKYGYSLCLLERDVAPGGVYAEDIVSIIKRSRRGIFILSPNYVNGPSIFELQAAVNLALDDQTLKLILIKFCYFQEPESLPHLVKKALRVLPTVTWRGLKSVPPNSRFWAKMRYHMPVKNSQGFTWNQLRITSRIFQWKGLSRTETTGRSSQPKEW

T4: human IL-18 binding protein (human, UniProt O95998 31-194)
T4 sequence (looked up): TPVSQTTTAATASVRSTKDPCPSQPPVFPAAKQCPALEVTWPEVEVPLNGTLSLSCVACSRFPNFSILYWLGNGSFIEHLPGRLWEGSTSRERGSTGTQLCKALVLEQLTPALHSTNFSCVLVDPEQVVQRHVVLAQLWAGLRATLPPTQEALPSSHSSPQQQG


Experiments:
[1] = biological target: T1, mouse IL-18 receptor alpha; test: Octet BLI, monoFc scaffold
Protocol: (§1) Octet 96red instrument was used to determine affinities of IL18 proteins to BP or receptors. 5-10 ug/ml analyte proteins were used for loading on Sartorius tips (AHC or SA). […] 120-180 s loading, 200 s association and 800 s dissociation were used for kinetics. 3-7 data points were used to calculate affinities.
(§2) Several mouse variants were next tested for binding affinity to mouse IL-18R alpha and mouse IL-18BP.

[2] = biological target: T2, mouse IL-18 binding protein; test: Octet BLI, monoFc scaffold
Protocol: as §1, §2

[3] = biological target: T3, IL-18 receptors on HEK-Blue IL-18 …; test: cell-based or functional assay
[4] = biological target: T4, human IL-18 binding protein; test: cell-based or functional assay
[5] = biological target: T3, IL-18 receptors on HEK-Blue IL-18 …; test: cell-based or functional assay; remark: listed apart in the source
[6] = biological target: T4, human IL-18 binding protein; test: cell-based or functional assay; remark: listed apart in the source

Binder	Kd [1] [nM]	binding result [2]	Kd [2] [nM]	HEK-blue EC50 (pM) - BP [3] [pM]	HEK-blue EC50 (pM) + 1000 nM BP [4] [pM]	HEK-blue EC50 (pM) - BP [5] [pM]	HEK-blue EC50 (pM) + 300 nM BP [6] [pM]
mouse IL-18 G3V/L59K on monoFc scaffold (Fc fusion, not shown: small tags and cut ends) NFVRLHSTTAVIRNINDQVLFVDKRQPVFEDMTDIDQSASEPQTRLIIYMYKDSEVRGKAVTLSVKDSKMSTLSSKNKIISFEEMDPPENIDDIQSDLIFFQKRVPGHNKMEFESSLYEGHFLASQKEDDAFKLILKKKDENGDKSVMFTLTNLHQSNGGPSVFLFPPKPKDTLMISRTPEVTCVVVDVSHEDPEVKFNWYVDGVEVHNAKTKPREEQYNSTYRVVSVLTVLHQDWLNGKEYKCKVSNKALPAPIEKTISKAKGQPREPQVYTLPPSREEMTKNQVNLTCLVKGFYPSDIAVEWESNGQPENNYKTTPPVLDSDGSFFLNSTLTVDKSRWQQGNVFSCSVMHEALHNHYTQKSLSLS	14.5	no binding	–	–	–	–	–
mouse IL-18 G3V/L59M on monoFc scaffold (Fc fusion, not shown: small tags and cut ends) NFVRLHSTTAVIRNINDQVLFVDKRQPVFEDMTDIDQSASEPQTRLIIYMYKDSEVRGMAVTLSVKDSKMSTLSSKNKIISFEEMDPPENIDDIQSDLIFFQKRVPGHNKMEFESSLYEGHFLASQKEDDAFKLILKKKDENGDKSVMFTLTNLHQSNGGPSVFLFPPKPKDTLMISRTPEVTCVVVDVSHEDPEVKFNWYVDGVEVHNAKTKPREEQYNSTYRVVSVLTVLHQDWLNGKEYKCKVSNKALPAPIEKTISKAKGQPREPQVYTLPPSREEMTKNQVNLTCLVKGFYPSDIAVEWESNGQPENNYKTTPPVLDSDGSFFLNSTLTVDKSRWQQGNVFSCSVMHEALHNHYTQKSLSLS	17.4	–	2.47	–	–	–	–
mouse IL-18 G3V/L59R on monoFc scaffold (Fc fusion, not shown: small tags and cut ends) NFVRLHSTTAVIRNINDQVLFVDKRQPVFEDMTDIDQSASEPQTRLIIYMYKDSEVRGRAVTLSVKDSKMSTLSSKNKIISFEEMDPPENIDDIQSDLIFFQKRVPGHNKMEFESSLYEGHFLASQKEDDAFKLILKKKDENGDKSVMFTLTNLHQSNGGPSVFLFPPKPKDTLMISRTPEVTCVVVDVSHEDPEVKFNWYVDGVEVHNAKTKPREEQYNSTYRVVSVLTVLHQDWLNGKEYKCKVSNKALPAPIEKTISKAKGQPREPQVYTLPPSREEMTKNQVNLTCLVKGFYPSDIAVEWESNGQPENNYKTTPPVLDSDGSFFLNSTLTVDKSRWQQGNVFSCSVMHEALHNHYTQKSLSLS	51.5	no binding	–	–	–	–	–
human IL-18 variant G3V/M60K (ligand) YFVKLESKLSVIRNLNDQVLFIDQGNRPLFEDMTDSDMRDNAPRTIFIISMYKDSQPRGKAVTISVKSEKISTLSSENKIISFKEMNPPDNIKDTKSDIIFFQRSVPGHDNKMQFESSSYEGYFLASEKERDLFKLILKKEDELGDRSIMFTVQNED	–	–	–	1.43	1.05	0.042	0.507
human IL-18 variant G3V/E6K/K53A (ligand) YFVKLKSKLSVIRNLNDQVLFIDQGNRPLFEDMTDSDMRDNAPRTIFIISMYADSQPRGMAVTISVKSEKISTLSSENKIISFKEMNPPDNIKDTKSDIIFFQRSVPGHDNKMQFESSSYEGYFLASEKERDLFKLILKKEDELGDRSIMFTVQNED	–	–	–	0.05	1.26	0.038	1.68
